Results taken from PMC4522657, “Identification of a DYRK1A Inhibitor that Induces Degradation of the Target Kinase using Co-chaperone CDC37 fused with Luciferase nanoKAZ” (Scientific Reports, 2015).
Each block holds one binder with its values, some of them ahead of it.

Experiments:
Test in all cases: ELISA; Lysates (HENG buffer: 50 mM HEPES-KOH pH 7.9, 150 mM NaCl, 20 mM Na2MoO4, 2 mM EDTA, 5% glycerol, 0.5% Triton X-100) of 293T cells stably expressing CDC37-nanoKAZ, nanoKAZ-HSP90β or nanoKAZ and transiently transfected with 3xFLAG-tagged kinases; 3xFLAG-kinase captured on 96-well plates coated with anti-FLAG M2, 4 °C for 3 h, washed; bound nanoKAZ fusion read by luminescence (Imax) with bis-coelenterazine, as …
Details in all cases: partners not purified
[1] = target: T1, 3xFLAG-DYRK1A (Y145F/Y147F) (UniProt Q13627-1 1-763, Y145F | Y147F)
T1 construct: DYRK1A with the autophosphorylation sites Tyr145 and Tyr147 substituted to Phe; Expressed upstream of F2A-EGFP as m2

[2] = target: T2, 3xFLAG-tagged kinase-dead mutant of DYRK1A (K188R) (UniProt Q13627-1 1-763, K188R)
T2 construct: DYRK1A with Lys188 substituted to Arg; Expressed upstream of F2A-EGFP as m2; also called K188R mutant

[3] = target: T3, 3xFLAG-DYRK1A (Y159F) (UniProt Q13627-1 1-763, Y159F)
T3 construct: DYRK1A with the autophosphorylation site Tyr159 substituted to Phe; Expressed upstream of F2A-EGFP as m2

[4] = target: T4, 3xFLAG-DYRK1A (Y319F/Y321F) (UniProt Q13627-1 1-763, Y319F | Y321F)
T4 construct: Expressed upstream of F2A-EGFP as m2; also called Y319F/Y321F mutant; DYRK1A mutant

[5] = target: T5, 3xFLAG-tagged DYRK4 (UniProt Q9NR20 1-520)
T5 construct: DYRK4; residues of F2A may remain at the C-terminus (surmise); also called 3xFLAG-DYRK4; source: 293T cells stably expressing CDC37-nanoKAZ, transiently transfected (pcDNA5/FRT/TO), in lysate
T5 sequence (looked up): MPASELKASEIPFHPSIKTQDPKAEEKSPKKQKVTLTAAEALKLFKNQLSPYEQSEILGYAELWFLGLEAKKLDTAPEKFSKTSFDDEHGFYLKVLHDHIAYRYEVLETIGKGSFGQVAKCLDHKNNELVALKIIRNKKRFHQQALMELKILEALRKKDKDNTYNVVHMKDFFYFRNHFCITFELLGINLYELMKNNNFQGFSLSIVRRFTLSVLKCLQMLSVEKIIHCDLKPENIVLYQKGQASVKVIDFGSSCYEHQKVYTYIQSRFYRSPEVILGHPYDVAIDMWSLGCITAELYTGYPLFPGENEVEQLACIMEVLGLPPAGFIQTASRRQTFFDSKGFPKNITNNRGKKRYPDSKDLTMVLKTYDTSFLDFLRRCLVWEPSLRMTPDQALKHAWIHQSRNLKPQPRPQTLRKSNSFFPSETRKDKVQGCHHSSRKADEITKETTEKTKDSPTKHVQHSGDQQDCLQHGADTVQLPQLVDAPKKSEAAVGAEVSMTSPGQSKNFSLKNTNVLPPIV

[6] = target: T6, 3xFLAG-DYRK1A (Y111F) (UniProt Q13627-1 1-763, Y111F)
T6 construct: DYRK1A with the autophosphorylation site Tyr111 substituted to Phe; Expressed upstream of F2A-EGFP as m2

fold stronger interaction than intact DYRK1A [1]: 2.4 fold
fold stronger interaction than intact DYRK1A [2]: 17 fold
fold stronger interaction than intact DYRK1A [3]: 8.4 fold
fold stronger interaction than intact DYRK1A [4]: 8 fold
fold stronger interaction than 3xFLAG-DYRK1A [5]: 102 fold
fold stronger interaction than intact DYRK1A [6]: 1.4 fold
B1: CDC37-nanoKAZ (natural protein, UniProt Q16543 1-378, looked up)
chain: MVDYSVWDHIEVSDDEDETHPNIDTASLFRWRHQARVERMEQFQKEKEELDRGCRECKRKVAECQRKLKELEVAEGGKAELERLQAEAQQLRKEERSWEQKLEEMRKKEKSMPWNVDTLSKDGFSKSMVNTKPEKTEEDSEEVREQKHKTFVEKYEKQIKHFGMLRRWDDSQKYLSDNVHLVCEETANYLVIWCIDLEVEEKCALMEQVAHQTIVMQFILELAKSLKVDPRACFRQFFTKIKTADRQYMEGFNDELEAFKERVRGRAKLRIEKAMKEYEEEERKKRLGPGGLDPVEVYESLPEELQKCFDVKDVQMLQDAISKMDPTDAKYHMQRCIDSGLWVPNSKASEAKEGEEAGPGDPLLEAVPKTGDEKDVSV
notes: Kinase-specific co-chaperone CDC37; also called CDC37 fused with nanoKAZ; source: 293T cells stably expressing CDC37-nanoKAZ (pCAGIPuro vector), in lysate; not shown: nanoKAZ (luciferase reporter), C-terminal, kept

fold stronger interaction than intact DYRK1A [2]: 10 fold
fold stronger interaction than intact DYRK1A [4]: 3.8 fold
B2: nanoKAZ-HSP90β (natural protein)
chain: not shown
notes: HSP90β (HSP90AB1 gene product); Codon-optimized nanoKAZ (GenBank AB823628) fused to the amino-terminus of HSP90β; also called HSP90β fused with nanoKAZ; nanoKAZ-HSP90AB1; source: 293T cell line stably expressing nanoKAZ-HSP90β (pCAGIPuro vector), in lysate; not shown: nanoKAZ (luciferase reporter), N-terminal, kept
